From patent US20030147861A1, “Compounds and methods for the modulation of immune responses” (Genesis Research and Development Corporation Limited, priority 2001, published 2003)

Experiments:
[1] = test system: MAP kinase signaling pathway in THP-1 cells (IL-10 production); experiment: AVAC-induced IL-10 production by THP-1 cells pre-treated with MAP kinase inhibitors (ELISA); assay type: cell-based, human; details: inhibitor pre-treatment 120 minutes; 25 μg/mL AVAC, 24 hours
Description: The involvement of the MAP kinase signaling pathway in the production of IL-10 by THP-1 cells in response to AVAC was assessed as follows.
Prior to culture with AVAC, 50 μL of THP-1 cells in cRPMI-10 were pre-treated in duplicate microplate wells with 50 μL of serially diluted PD98059 (Calbiochem cat. no. 51300, a selective inhibitor of MAP kinase), SB202190 (Calbiochem cat. no. 559388, an inhibitor of p38 MAP kinase and p38β MAP kinase), SB203580 (Calbiochem cat. no. 559389, a highly specific inhibitor of p38 MAP kinase), with SB202474 (Calbiochem cat. no. 559387, a negative control for MAP kinase inhibition studies), or with no added chemicals. MAP kinase inhibitors and control were used at a final concentration of 100 μg/mL, 20 μg/mL, 4.0 μg/mL, 0.8 μg/mL, 0.16 μg/mL, or […]. Pretreatment of cells with MAP kinase inhibitors and control was for 120 minutes in a water-jacketed, humidified incubator at 37° C. supplied with 5% CO2 in air.
Following pretreatment, the cells were washed once in cPRMI-10 to remove inhibitor or control chemicals. […] IL-10 content in the microculture supernatants was determined by sandwich ELISA using a commercially available set (eBioscience cat. no. 88-7106-77,) according to the manufacturer's recommendations. […]

[2] = test system: CD40, CD80 and CD86 on dendritic cells; assay type: cell-based, human
[3] = test system: CD69 on αβT cells, γδT cells and NK cells; assay type: cell-based, human
[4] = test system: IL-1β, TNF-α, IL-12 and IFN-γ production in PBMC; experiment: Cytokine production in PBMC from normal donors (ELISA); assay type: cell-based, human
[5] = test system: CD40, CD80 and CD86 on B cells; experiment: CD40, CD80 and CD86 expression on B cells (3 color flow cytometry); assay type: cell-based, human; details: 20 ug/ml, 48 hours, vs non-stimulated cells
Source text: (§1) Stimulated cells were harvested and analyzed for up-regulation of CD40, CD80 and CD86 using 3 color flow cytometric analysis. Tables 16, 17 and 18 show the fold increase in mean fluorescence intensity from control (non-stimulated cells) for dendritic cells, monocytes, and B cells, respectively.

[6] = test system: CD40, CD80 and CD86 on monocytes; experiment: CD40, CD80 and CD86 expression on monocytes (3 color flow cytometry); assay type: cell-based, human; details: 20 ug/ml, 48 hours, vs non-stimulated cells
Source text: as §1

[7] = test system: popliteal lymph node cells; experiment: Proliferation of lymph node cells from GV protein-immunized mice; assay type: cell-based, female BALB/cByJ mice; details: lymph node cells of mice immunized with 10 μg of the same GV protein in IFA
Description: (§2) The immunogenicity of Mycobacterium vaccae recombinant proteins (referred to herein as GV recombinant proteins) was tested by injecting female BALB/cByJ mice in each hind foot-pad with 10 μg of recombinant GV proteins emulsified in incomplete Freund's adjuvant (IFA). Control mice received phosphate buffered saline in IFA. The draining popliteal lymph nodes were excised 10 days later and the cells obtained therefrom were stimulated with the immunizing GV protein and assayed for proliferation by measuring the uptake of tritiated thymidine. The amount of interferon gamma (IFNγ) produced and secreted by these cells into the culture supernatants was assayed by standard enzyme-linked immunoassay.

[8] = test system: IFNγ production by lymph node cells; experiment: IFNγ production by lymph node cells from GV protein-immunized mice (enzyme-linked immunoassay); assay type: cell-based, female BALB/cByJ mice; details: lymph node cells of mice immunized with the same GV protein
Description: as §2

[9] = dendritic cells, 20 ug/ml, 48 hours, vs non-stimulated cells
[10] = Dose of GV protein used in vitro 0.08 μg/ml
[11] = Dose of GV protein used in vitro 2 μg/ml
[12] = Dose of GV protein used in vitro 50 μg/ml

C[S+]([O-])c1ccc(-c2nc(-c3ccncc3)c(-c3ccc(F)cc3)[nH]2)cc1 (stereo not drawn) [SB203580]
suppression of AVAC-induced production of IL-10 by THP-1 cells [1]: substantially suppressed in a dose-dependent manner

Oc1ccc(-c2nc(-c3ccncc3)c(-c3ccc(F)cc3)[nH]2)cc1 [SB202190]
suppression of AVAC-induced production of IL-10 by THP-1 cells [1]: substantially suppressed in a dose-dependent manner

cholera toxin [reference compound]
CD40, CD80 and CD86 expression in dendritic cells, comparison with adjuvants [2]: modest | CD69 expression on NK cells, comparison with adjuvants [3]: did not

B1: GV-45: recombinant M. vaccae antigen, amino acid sequence SEQ ID NO: 52 (protein, listed as Mycobacterium vaccae)
chain: MNKAELIDVLTEKLGSDRRQATAAVENVVDTIVRAVHKGESVTITGFGVFEQRRRAARVARNPRTGETVKVKPTSVPAFRPGAQFKAVVSGAQKLPAEGPAVKRGVTATSTARKAAKKAPAKKAAAKKAAPAKKAPAKKAATKAAPAKKATAAKKAAPAKKATAAKKAAPAKKAPAKKAATKAAPAKKAPAKKAATKAAPAKKAPAAKKAPAKKAPAKRGGRK
CD40, CD80 and CD86 expression on dendritic cells ([2]; 20 ug/ml, 48 hours, T cell-depleted PBMC): highest levels of expression | CD40 expression, fold increase in mean fluorescence intensity from control [2, 9]: 5.8 fold | CD80 expression, fold increase in mean fluorescence intensity from control [2, 9]: 3.0 fold | CD86 expression, fold increase in mean fluorescence intensity from control [2, 9]: 3.1 fold | production of IL-1β, TNF-α, IL-12 and IFN-γ by PBMC [4]: stimulate the production of IL-1β, TNF-α and IL-12 | CD40 expression, fold increase in mean fluorescence intensity from control [5]: 1.2 fold | CD80 expression, fold increase in mean fluorescence intensity from control [5]: 1.1 fold | CD86 expression, fold increase in mean fluorescence intensity from control [5]: 1.3 fold | percentage of αβT cells expressing CD69 ([3]; PBMC from normal donors, 20 ug/ml, 24 hours, control 3.8): 11.7% | percentage of NK cells expressing CD69 ([3]; PBMC from normal donors, 20 ug/ml, 24 hours, control 4.8): 6.3% | percentage of γδT cells expressing CD69 ([3]; PBMC from normal donors, 20 ug/ml, 24 hours, control 6.2): 4.9% | CD40 expression, fold increase in mean fluorescence intensity from control [6]: 1.6 fold | CD80 expression, fold increase in mean fluorescence intensity from control [6]: 1.2 fold | CD86 expression, fold increase in mean fluorescence intensity from control [6]: 1.0 fold | Proliferation (cpm) [7, 10]: 1,497 ± 199 cpm | Proliferation (cpm) [7, 11]: 3,683 ± 1,127 cpm | Proliferation (cpm) [7, 12]: 9,554 ± 482 cpm

B2: GV-35: recombinant M. vaccae antigen, amino acid sequence SEQ ID NO: 45 (protein, listed as Mycobacterium vaccae)
chain: MKANHSGCYKSAGPIWSHPSPLCSPALAPSHAGLDNELSLGVHGQGPEHLTIQQWDTFLNGVFPLDRNRLTREWFHSGKATYVVAGEGADEFEGTLELGYHVGFPWSLGVGINFSYTTPNITYDGYGLNFADPLLGFGDSIVTPPLFPGVSITADLGNGPGIQEVATFSVDVAGPGGSVVVSNAHGTVTGAAGGVLLRPFARLISSTGDSVTTYGAPLKHELTTSRWRPPGVNRGPLHAGREAPEVRSKWPTAANACARDSSSLTQGLVVVECHPVTPPHRPRRDGRGSGVWAPALGTYGGDRRRDVTSVAVFAGNPDGPAESPHPSSEPGGSKEF
Proliferation (cpm) [7, 10]: 1,626 ± 406 cpm | Proliferation (cpm) [7, 11]: 9,968 ± 314 cpm | Proliferation (cpm) [7, 12]: 29,163 ± 2,693 cpm

B3: GV-33: recombinant M. vaccae antigen, amino acid sequence SEQ ID NO: 44 (protein, listed as Mycobacterium vaccae)
chain: MVRAALRYGFGTASLLAGGFVLRALQGTPAALGATPGEVAPVARRSPNYRDGKFVNLEPPSGITMDRDLQRMLLRDLANAASQGKPPGPIPLAEPPKGDPTPAPAAASWYGHSSVLIEVDGYRVLADPVWSNRCSPSRAVGPQRMHDVPVPLEALPAVDAVVISHDHYDHLDIDTIVALAHTQRAPFVVPLGIGAHLRKWGVPEARIVELDWHEAHRIDDLTLVCTPARHFSGRLFSRDSTLWASWVVTGSSHKAFFGGDTGYTKSFAEIGDEYGPFDLTLLPIGAYHPAFADIHMNPEEAVRAHLDLTEVDNSLMVPIHWATFRLAPHPWSEPAERLLTAADAERVRLTVPIPGQRVDPESTFDPWWRF
IFNγ [8, 11]: 1.52 ± 0.24 ng/mL | IFNγ ([8]; Dose of GV protein used in vitro 10 μg/ml): 8.44 ± 2.35 ng/mL | IFNγ [8, 12]: 7.71 ± 0.26 ng/mL | Proliferation (cpm) [7, 10]: 8,764 ± 256 cpm | Proliferation (cpm) [7, 11]: 27,529 ± 1,238 cpm | Proliferation (cpm) [7, 12]: 41,529 ± 1,919 cpm
